Laboratory results from patent US20250085287A1 (ADICET THERAPEUTICS, published 2025).

Legend:
[1] = biological target: human GPC3 on tumor cells (membrane-associated GPC3 in FFPE xenograft tissue) (human) (UniProt P51654); assay: IHC on FFPE xenograft tumor tissue, cytoplasmic staining; HepG2
[2] = biological target: human GPC3 on tumor cells (membrane-associated GPC3 in FFPE xenograft tissue) (human) (UniProt P51654); assay: IHC (DAB), implanted PP5 tumor (GPC3lo), middle row of images, 1G12 at 0.5 µg/mL
[3] = biological target: human GPC3 on tumor cells (membrane-associated GPC3 in FFPE xenograft tissue) (human) (UniProt P51654); assay: IHC on FFPE xenograft tumor tissue; HepG2, table row 6
[4] = biological target: human GPC3 on tumor cells (membrane-associated GPC3 in FFPE xenograft tissue) (human) (UniProt P51654); assay: IHC on FFPE xenograft tumor tissue; HepG2, table row 5
[5] = biological target: human GPC3 on tumor cells (membrane-associated GPC3 in FFPE xenograft tissue) (human) (UniProt P51654); assay: IHC on FFPE xenograft tumor tissue, cytoplasmic staining; Hep3B, table row 2
[6] = biological target: human GPC3 on tumor cells (membrane-associated GPC3 in FFPE xenograft tissue) (human) (UniProt P51654); assay: IHC on FFPE xenograft tumor tissue, cytoplasmic staining; Hep3B, table row 1
[7] = biological target: human GPC3 on tumor cells (membrane-associated GPC3 in FFPE xenograft tissue) (human) (UniProt P51654); assay: IHC on FFPE xenograft tumor tissue, PP5 (PLC/PRF/5)
[8] = biological target: human GPC3 on tumor cells (membrane-associated GPC3 in FFPE xenograft tissue) (human) (UniProt P51654); assay: IHC on FFPE xenograft tumor tissue; HepG2, table row 5 (so in the source); the four percentages of the row add up to 105
[9] = biological target: human GPC3 on tumor cells (membrane-associated GPC3 in FFPE xenograft tissue) (human) (UniProt P51654); assay: IHC on FFPE xenograft tumor tissue, HepG2
[10] = biological target: human GPC3 on tumor cells (membrane-associated GPC3 in FFPE xenograft tissue) (human) (UniProt P51654); assay: IHC on FFPE xenograft tumor tissue; Hep3B, table row 3
[11] = biological target: recombinant human glypican-3 (rhGPC3) (human) (UniProt P51654); assay: BLI; antibody captured on IgG-Fc capture biosensor, antigen as analyte, global 1:1 fit
[12] = biological target: human GPC3 on tumor cells (membrane-associated GPC3 in FFPE xenograft tissue) (human) (UniProt P51654); assay: IHC on FFPE xenograft tumor tissue, cytoplasmic staining; Hep3B, table row 3
[13] = biological target: human GPC3 on tumor cells (membrane-associated GPC3 in FFPE xenograft tissue) (human) (UniProt P51654); assay: IHC on FFPE xenograft tumor tissue; Hep3B, table row 2
[14] = biological target: human GPC3 on tumor cells (membrane-associated GPC3 in FFPE xenograft tissue) (human) (UniProt P51654); assay: IHC on FFPE xenograft tumor tissue, Hep3B
[15] = biological target: human GPC3 on tumor cells (membrane-associated GPC3 in FFPE xenograft tissue) (human) (UniProt P51654); assay: IHC on FFPE xenograft tumor tissue; Hep3B, table row 3 (so in the source); does not fit the 90 and the 255 of the same row
[16] = biological target: human GPC3 on tumor cells (membrane-associated GPC3 in FFPE xenograft tissue) (human) (UniProt P51654); assay: IHC on squamous cell carcinoma of the lung
[17] = biological target: human GPC3 on tumor cells (membrane-associated GPC3 in FFPE xenograft tissue) (human) (UniProt P51654); assay: IHC (DAB), implanted HepG2 tumor (GPC3hi), 1G12 at 0.5 µg/mL
[18] = biological target: human GPC3 on tumor cells (membrane-associated GPC3 in FFPE xenograft tissue) (human) (UniProt P51654); assay: IHC on FFPE xenograft tumor tissue; HepG2, table row 4
[19] = biological target: human GPC3 on tumor cells (membrane-associated GPC3 in FFPE xenograft tissue) (human) (UniProt P51654); assay: IHC on FFPE xenograft tumor tissue; Hep3B, table row 1
[20] = biological target: recombinant human glypican-3 (rhGPC3) (human) (UniProt P51654); assay: BLI; antibody captured on IgG-Fc capture biosensor, antigen as analyte from 100 nM, 1:3 dilutions, global 1:1 fit
[21] = biological target: human GPC3 on tumor cells (membrane-associated GPC3 in FFPE xenograft tissue) (human) (UniProt P51654); assay: IHC on hepatocellular carcinoma
[22] = biological target: human GPC3 on tumor cells (membrane-associated GPC3 in FFPE xenograft tissue) (human) (UniProt P51654); assay: IHC (DAB), implanted PP5 tumor (GPC3lo), bottom row of images, 1G12 at 0.5 µg/mL
[23] = biological target: human GPC3 on tumor cells (membrane-associated GPC3 in FFPE xenograft tissue) (human) (UniProt P51654); assay: IHC on FFPE xenograft tumor tissue, Huh7
[24] = biological target: recombinant human glypican-3 (rhGPC3) (human) (UniProt P51654); assay: BLI; humanized GC33 captured on anti-human IgG-Fc biosensor, antigen as analyte from 100 nM, 1:3 dilutions, global 1:1 fit
[25] = biological target: recombinant human glypican-3 (rhGPC3) (human) (UniProt P51654); assay: BLI; antibody captured on anti-mouse IgG-Fc biosensor, antigen as analyte from 100 nM, 1:3 dilutions, global 1:1 fit
[26] = biological target: recombinant human glypican-3 (rhGPC3) (human) (UniProt P51654); assay: BLI in-tandem cross-competition; biotinylated antigen on SA biosensor saturated with 150 nM GC33 (competitor), then 150 nM 204
[27] = biological target: recombinant human glypican-3 (rhGPC3) (human) (UniProt P51654); assay: BLI in-tandem cross-competition; buffer only, no saturating antibody (maximal binding reference)
[28] = biological target: recombinant human glypican-3 (rhGPC3) (human) (UniProt P51654); assay: BLI in-tandem cross-competition; biotinylated antigen on SA biosensor saturated with 150 nM 204 (self-blocking), then 150 nM 204
[29] = biological target: recombinant human glypican-3 (rhGPC3) (human) (UniProt P51654); assay: BLI; antibody captured on anti-mouse IgG-Fc biosensor, antigen as analyte, global 1:1 fit
[30] = biological target: T1, recombinant human glypican-6 (rhGPC6) (human, UniProt Q9Y625 24-529, limits assumed); assay: western blot, primary antibody 1 ug/mL
T1 sequence (looked up): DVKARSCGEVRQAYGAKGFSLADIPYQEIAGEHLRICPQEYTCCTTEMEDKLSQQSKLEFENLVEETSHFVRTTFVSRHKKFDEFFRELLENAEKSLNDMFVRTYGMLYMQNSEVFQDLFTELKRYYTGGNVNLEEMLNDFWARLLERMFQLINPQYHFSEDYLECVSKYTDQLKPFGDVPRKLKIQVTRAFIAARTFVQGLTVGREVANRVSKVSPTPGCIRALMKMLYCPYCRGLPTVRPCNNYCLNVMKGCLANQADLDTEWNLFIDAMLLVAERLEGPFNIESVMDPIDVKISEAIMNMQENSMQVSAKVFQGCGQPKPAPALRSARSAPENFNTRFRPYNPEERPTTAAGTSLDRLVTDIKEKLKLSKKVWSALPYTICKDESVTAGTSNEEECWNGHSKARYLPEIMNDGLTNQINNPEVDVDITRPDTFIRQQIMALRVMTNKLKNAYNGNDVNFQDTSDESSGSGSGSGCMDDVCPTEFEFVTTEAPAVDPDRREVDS

[31] = biological target: T2, recombinant human glypican-5 (rhGPC5) (human, UniProt P78333 25-551, limits assumed); assay: western blot, primary antibody 1 ug/mL
T2 sequence (looked up): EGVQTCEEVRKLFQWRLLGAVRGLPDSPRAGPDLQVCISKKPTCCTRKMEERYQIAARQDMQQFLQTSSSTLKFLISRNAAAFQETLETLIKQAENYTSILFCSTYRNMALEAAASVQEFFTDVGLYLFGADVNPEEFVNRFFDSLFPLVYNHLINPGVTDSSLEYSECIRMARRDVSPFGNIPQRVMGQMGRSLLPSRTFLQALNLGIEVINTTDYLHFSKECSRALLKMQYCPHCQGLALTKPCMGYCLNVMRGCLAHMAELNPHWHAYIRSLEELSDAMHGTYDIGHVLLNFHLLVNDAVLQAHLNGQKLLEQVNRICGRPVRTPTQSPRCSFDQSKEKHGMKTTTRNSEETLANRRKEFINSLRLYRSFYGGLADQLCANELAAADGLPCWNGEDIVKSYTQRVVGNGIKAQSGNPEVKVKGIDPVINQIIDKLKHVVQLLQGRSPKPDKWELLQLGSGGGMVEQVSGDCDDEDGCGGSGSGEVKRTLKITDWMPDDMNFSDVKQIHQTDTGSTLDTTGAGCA

Sequence of recombinant human glypican-3 (rhGPC3) (human) (P51654 25-559): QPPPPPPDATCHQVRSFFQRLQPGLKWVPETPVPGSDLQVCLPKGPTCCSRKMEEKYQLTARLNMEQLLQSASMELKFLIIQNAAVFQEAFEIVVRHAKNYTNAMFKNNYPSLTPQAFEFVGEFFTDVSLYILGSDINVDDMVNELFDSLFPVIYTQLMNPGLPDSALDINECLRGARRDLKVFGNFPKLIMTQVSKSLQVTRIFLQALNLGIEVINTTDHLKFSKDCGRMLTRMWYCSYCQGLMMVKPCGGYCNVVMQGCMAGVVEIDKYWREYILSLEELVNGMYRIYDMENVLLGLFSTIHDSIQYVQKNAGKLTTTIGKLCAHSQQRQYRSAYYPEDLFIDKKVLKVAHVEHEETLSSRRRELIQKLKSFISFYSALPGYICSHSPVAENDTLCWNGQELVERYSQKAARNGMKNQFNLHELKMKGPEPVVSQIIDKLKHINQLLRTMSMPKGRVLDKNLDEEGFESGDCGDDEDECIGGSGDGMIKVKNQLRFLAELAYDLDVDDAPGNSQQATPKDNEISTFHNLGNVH
Sequence of human GPC3 on tumor cells (membrane-associated GPC3 in FFPE xenograft tissue) (human) (P51654 25-554 limits assumed): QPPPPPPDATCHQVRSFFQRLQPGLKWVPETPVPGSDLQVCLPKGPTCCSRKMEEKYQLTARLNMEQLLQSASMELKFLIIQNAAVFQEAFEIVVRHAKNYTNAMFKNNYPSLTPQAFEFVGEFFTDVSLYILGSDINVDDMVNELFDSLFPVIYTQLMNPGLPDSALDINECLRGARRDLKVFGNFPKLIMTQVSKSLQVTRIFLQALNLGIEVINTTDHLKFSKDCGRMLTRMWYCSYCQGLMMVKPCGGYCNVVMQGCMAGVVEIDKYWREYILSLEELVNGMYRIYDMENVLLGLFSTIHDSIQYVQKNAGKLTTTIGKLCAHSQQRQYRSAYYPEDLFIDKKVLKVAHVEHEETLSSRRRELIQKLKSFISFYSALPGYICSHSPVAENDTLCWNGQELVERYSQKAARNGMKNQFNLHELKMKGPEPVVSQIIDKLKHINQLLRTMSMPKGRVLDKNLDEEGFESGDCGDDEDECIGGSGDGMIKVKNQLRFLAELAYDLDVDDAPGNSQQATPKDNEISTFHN

1G12 anti-GPC3 monoclonal antibody
Average Intensity of cytoplasmic staining [1]: 2 + | Membrane-associated H-Score [2]: 130 | % Tumor Cells Positive - Membranous Staining, intensity 0 [3]: 5% | % Tumor Cells Positive - Membranous Staining, intensity 1+ [3]: 10% | % Tumor Cells Positive - Membranous Staining, intensity 2+ [3]: 5% | % Tumor Cells Positive - Membranous Staining, intensity 3+ [3]: 80% | H-Score (membranous staining) [3]: 260 | Mod/High Intensity (2/3+) [3]: 85% | % Tumor Cells Positive - Membranous Staining, intensity 0 [4]: 5% | % Tumor Cells Positive - Membranous Staining, intensity 1+ [4]: 10% | % Tumor Cells Positive - Membranous Staining, intensity 2+ [4]: 45% | H-Score (membranous staining) [4]: 220 | Mod/High Intensity (2/3+) [4]: 85% | Average Intensity of cytoplasmic staining [5]: 1 + | Average Intensity of cytoplasmic staining [6]: 1 + | Membrane-bound GPC3 H-score [7]: 75 | % Tumor Cells Positive - Membranous Staining, intensity 3+ [8]: 45% | Membrane-bound GPC3 H-score [9]: 260 | % Tumor Cells Positive - Membranous Staining, intensity 0 [10]: 5% | % Tumor Cells Positive - Membranous Staining, intensity 1+ [10]: 5% | % Tumor Cells Positive - Membranous Staining, intensity 2+ [10]: 20% | H-Score (membranous staining) [10]: 255 | Mod/High Intensity (2/3+) [10]: 90% | koff [11]: 0.00053 s⁻¹ | kon [11]: 170000 M⁻¹ s⁻¹ | Average Intensity of cytoplasmic staining [12]: 1 + | % Tumor Cells Positive - Membranous Staining, intensity 0 [13]: 0% | % Tumor Cells Positive - Membranous Staining, intensity 1+ [13]: 5% | % Tumor Cells Positive - Membranous Staining, intensity 2+ [13]: 15% | % Tumor Cells Positive - Membranous Staining, intensity 3+ [13]: 80% | H-Score (membranous staining) [13]: 275 | Mod/High Intensity (2/3+) [13]: 95% | Membrane-bound GPC3 H-score [14]: 265 | % Tumor Cells Positive - Membranous Staining, intensity 3+ [15]: 20% | Membrane-bound GPC3 H-score [16]: 90 | Membrane-associated H-Score [17]: 285 | % Tumor Cells Positive - Membranous Staining, intensity 0 [18]: 5% | % Tumor Cells Positive - Membranous Staining, intensity 1+ [18]: 20% | % Tumor Cells Positive - Membranous Staining, intensity 2+ [18]: 50% | % Tumor Cells Positive - Membranous Staining, intensity 3+ [18]: 25% | H-Score (membranous staining) [18]: 195 | Mod/High Intensity (2/3+) [18]: 75% | % Tumor Cells Positive - Membranous Staining, intensity 0 [19]: 5% | % Tumor Cells Positive - Membranous Staining, intensity 1+ [19]: 5% | % Tumor Cells Positive - Membranous Staining, intensity 2+ [19]: 10% | % Tumor Cells Positive - Membranous Staining, intensity 3+ [19]: 80% | H-Score (membranous staining) [19]: 265 | Mod/High Intensity (2/3+) [19]: 90% | Kd [20]: 3 nM | Membrane-bound GPC3 H-score [21]: 110 | Membrane-associated H-Score [22]: 90 | Membrane-bound GPC3 H-score [23]: 80

GC33 anti-GPC3 antibody
Kd [24]: 1 nM

B1: 204 monoclonal antibody (mouse anti-human GPC3) (antibody, IgG2b, V domains shown)
VH: EVQLQQSGPELVKPGASVKISCKTSGYTFTEYAMHWVKQSHGKSLEWIGGINPNNGVTTYNQRFKGKATLTVDKSSSTAYMELRSLTSEDSAVYYCARGLLWYAYWGQGTLVTVSA
VL: DIKMTQSPSSMYASLGERVTITCKASQDINSYLSWFQQKPGKSPKTLIYRANRLVDGVPSRFSGSGSGQDYSLTISSLEYEDMGIYYCLQYDEFPLTFGAGTKLELK
notes: also called GPC.204
Kd [25]: 2.5 nM | % Binding of Competing Antibody [26]: 89.9% | % Binding of Competing Antibody [27]: 100% | % Binding of Competing Antibody [28]: 18.2% | koff [29]: 0.0021 s⁻¹ | kon [29]: 820000 M⁻¹ s⁻¹ | binding result [30]: no binding | binding result [31]: no binding
